Measurements from article PMC6127294, “Jungle Express is a versatile repressor system for tight transcriptional control” (Nature Communications, 2018).

Tests used:
[1] = target: T1, EilR-Y03A/R32A (UniProt A0A346M331 1-192, Y3A;R32A); assay: EMSA; up to 8:1 protein:DNA; 10 mM MgCl2; Operator EMSA: 30 mM Tris pH 7.7, 100 mM NaCl, 25 mM arginine, 25 mM glutamine, 5 mM MgCl2, RT 1.5 h; mutant EMSA: 50 mM Tris pH 8.0, 150 mM NaCl, 50 mM arginine, 50 mM glutamine, 10 mM MgCl2, 0.5 mM DTT, RT 30 min; 2% agarose TBE gels; settings: protein: recombinant; chain copies: 2
T1 sequence: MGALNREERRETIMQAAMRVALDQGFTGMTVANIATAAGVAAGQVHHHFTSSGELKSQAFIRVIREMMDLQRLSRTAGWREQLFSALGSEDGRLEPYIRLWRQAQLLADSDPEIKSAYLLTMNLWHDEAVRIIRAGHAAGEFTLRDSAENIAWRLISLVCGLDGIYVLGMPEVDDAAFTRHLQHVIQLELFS

[2] = target: T2, EilR-H47A (UniProt A0A346M331 1-192, H47A); assay: as above; settings: protein: recombinant; chain copies: 2
T2 sequence: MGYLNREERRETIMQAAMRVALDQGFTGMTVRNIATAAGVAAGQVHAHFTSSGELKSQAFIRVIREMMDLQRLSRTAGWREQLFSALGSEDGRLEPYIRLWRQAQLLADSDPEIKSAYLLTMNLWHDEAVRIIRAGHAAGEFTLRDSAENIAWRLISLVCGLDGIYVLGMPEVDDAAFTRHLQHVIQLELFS

[3] = target: T3, EilR-R32A (UniProt A0A346M331 1-192, R32A); assay: as above; settings: protein: recombinant; chain copies: 2
T3 sequence: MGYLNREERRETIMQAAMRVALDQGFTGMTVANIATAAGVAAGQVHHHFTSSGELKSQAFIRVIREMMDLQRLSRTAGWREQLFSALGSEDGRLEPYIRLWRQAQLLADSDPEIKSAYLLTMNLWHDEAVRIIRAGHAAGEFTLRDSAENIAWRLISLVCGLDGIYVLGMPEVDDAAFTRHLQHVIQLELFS

[4] = target: T4, EilR (UniProt A0A346M331 1-192); assay: EMSA; complex appears from 0.125:1 EilR:DNA; 10 mM MgCl2; Operator EMSA: 30 mM Tris pH 7.7, 100 mM NaCl, 25 mM arginine, 25 mM glutamine, 5 mM MgCl2, RT 1.5 h; mutant EMSA: 50 mM Tris pH 8.0, 150 mM NaCl, 50 mM arginine, 50 mM glutamine, 10 mM MgCl2, 0.5 mM DTT, RT 30 min; 2% agarose TBE gels; settings: protein: recombinant; tags: His8 removed with TEV protease; chain copies: 2
T4 sequence: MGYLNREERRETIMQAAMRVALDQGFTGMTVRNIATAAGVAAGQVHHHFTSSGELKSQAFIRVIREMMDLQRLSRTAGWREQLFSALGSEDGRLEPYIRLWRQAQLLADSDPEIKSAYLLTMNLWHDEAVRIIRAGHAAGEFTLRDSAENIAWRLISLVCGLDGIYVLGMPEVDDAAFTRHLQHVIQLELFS

[5] = target: T4, EilR; assay: EMSA; lower affinity than eilOc; 5 mM MgCl2; Operator EMSA: 30 mM Tris pH 7.7, 100 mM NaCl, 25 mM arginine, 25 mM glutamine, 5 mM MgCl2, RT 1.5 h; mutant EMSA: 50 mM Tris pH 8.0, 150 mM NaCl, 50 mM arginine, 50 mM glutamine, 10 mM MgCl2, 0.5 mM DTT, RT 30 min; 2% agarose TBE gels; settings: protein: recombinant; tags: His8 removed with TEV protease; chain copies: 2

| Binder | binding result [1] | binding result [2] | binding result [3] | binding result [4] | binding result [5] |
| --- | --- | --- | --- | --- | --- |
| eilOc 28-mer duplex (dsDNA) DNA 1: AAAAAGTTGGACACGTGTCCAACTTTCC DNA 2: GGAAAGTTGGACACGTGTCCAACTTTTT | no binding | no binding | no binding | binds |  |
| eilO2 (dsDNA) DNA 1: CGCAAACTGGACGGATGTCCAGCTTTGT DNA 2: ACAAAGCTGGACATCCGTCCAGTTTGCG |  |  |  |  | binds |
